# Test results as given in article PMC6697681, “The predominance of nucleotidyl activation in bacterial phosphonate biosynthesis” (Nature Communications, 2019).
# Substrate: NCCP(=O)(O)O
# Assay: purified protein
# Details: saturating CTP (4 mM), 7 mM MgCl2, room temperature
# Source text: coupled pyrophosphate release assay (EnzChek, MESG/PNP), initial rates on Tde-PntC (Tde1415)
protein,measurement,value
Tde-PntC (Tde1415) (Treponema denticola ATCC 35405) (protein) MIKQAVILAGGLGSRLKDKTKTMPKGFLEIGGTAIVEQSVQKLLAHGIEKIVIGTGHCNEYYDNLAKKYPAIITVKNENYANTGSMGTLEVCASFVNESFLLLESDLIYDSAGLFSLINDERKNLILASGATKSGDEVYLEADEKNCLTGLSKNRDALKNIFGELVGITKLTKSTLDKMCAYAKIHHSDLPKMEYEHALLEAAKTIPVAIKRIEYFVWREIDNEDHLEMAVKNIYPHIVENEKLRAVRREVLLNPGPATTTDSVKYAQVSADICPREKAFGDLMQWLCDELKLFALASETNPDEYETVMFGCSGTGADEVMVSSCVPDTGRLLVIDNGSYGARMAKIADIYKIPMDIFKSSTYEPLDLQKLEAEFATKKYTHLACVYHETTTGLLNPLHIICPMAKKYGMVTIVDAVSAYCGMPMDLKSLGIDFMASTSNKNIQGMAGVGFVICNKAELEKTKDYPMRNYYLNLYDQYAYFAKTHQTRFTPPVQTMYALRQAVLETKQETVQKRYERYTACWNILVAAIKKLGLKMLVKEEHQSHFITAILEPETPKYSFEALHDFAAEHSFTIYPGKLGNIDTFRIANIGDIQPEEMRRFTVKLKEYMNGIGVGV,Km,16 ± 5 µM
